Laboratory results published in paper PMC11928058.

How the values were obtained:
[1] = biological target: Rap1 (mouse (endogenous in immortalized murine lung endothelial cells)) (UniProt P62835); assay: proximity ligation; Duolink PLA read by flow cytometry; immortalized mouse endothelial cells expressing CIBN–GFP–CAAX and CRY2–mCherry–talin, in the dark or with blue light for 30 min at room temperature, fixed, permeabilized, stained with rabbit anti-mCherry and mouse anti-Rap1; with or without overexpressed mAzurite–FLAG–WT SPN
Sequence of UniProt P62835 (P62835 whole entry): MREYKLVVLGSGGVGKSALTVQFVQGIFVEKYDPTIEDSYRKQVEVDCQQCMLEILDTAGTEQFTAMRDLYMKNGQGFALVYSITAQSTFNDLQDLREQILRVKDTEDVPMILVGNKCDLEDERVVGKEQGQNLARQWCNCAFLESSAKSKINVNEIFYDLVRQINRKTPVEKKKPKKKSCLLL

[2] = biological target: Rap1 (mouse (endogenous in immortalized murine lung endothelial cells)) (UniProt P62835); assay: proximity ligation; Duolink PLA read by flow cytometry; immortalized murine lung endothelial cells in suspension, in the dark or with blue light for the indicated times, rabbit anti-SHANK3 and mouse anti-Rap1; signal as fold over a sample without primary antibodies; cells with SHANK3 shRNA as control

CRY2–mCherry–talin (full-length mouse talin-1) (from UniProt P26039 1-2541) (natural protein)
increase of the PLA signal with blue light over dark [1]: 10% | percent reduction of the PLA signal of m4 with m2 after 30 min of blue light [2]: 40%

SH3 and multiple ankyrin repeat domains 3 (SHANK3) (from UniProt Q4ACU6 1-1730) (natural protein)
PLA signal, fold over the same cells expressing SHANK3 shRNA [2]: 3 fold

mAzurite–FLAG–WT SPN (wild-type SPN domain of SHANK3) (domain or fragment)
percent reduction of the PLA signal of m1 with m2 [1]: 70%
